Experimental findings from patent publication US7176279 (PALATIN TECHNOLOGIES, dated 2007) are described below.

For experiment [1], the target named is T1, hMC4-R (human, UniProt P32245 1-332).
T1 construct: whole, on cells; cAMP assay on whole transfected HEK-293 cells; also called MC4 receptor; melanocortin-4 receptor
Description: competition with 125I-NDP-MSH, HEK 293 hMC4-R membranes, 1 µM peptide.

Experiment [2] has as its target T2, MC1-R (B16-F1 mouse melanoma cells) (mouse, UniProt Q01727 1-315).
T2 construct: whole, on cells; Assayed as membranes prepared from B16-F1 mouse melanoma cells; also called MC1 receptor; melanocortin-1 receptor
Put plainly: competition with 125I-NDP-MSH, B16-F1 membranes, 1 µM peptide.

In experiment [3] the target is T1, hMC4-R. Put plainly: titrated competitive binding assay on receptor membranes.
Experiment [4] has as its target T2, MC1-R (B16-F1 mouse melanoma cells). The experiment is described as above.
In experiment [5] the target is T3, hMC3-R (human, UniProt P41968 1-323).
T3 construct: whole, on cells; Assayed as membranes prepared from transfected HEK 293 cells; also called MC3 receptor; melanocortin-3 receptor
T3 sequence (P41968 whole entry): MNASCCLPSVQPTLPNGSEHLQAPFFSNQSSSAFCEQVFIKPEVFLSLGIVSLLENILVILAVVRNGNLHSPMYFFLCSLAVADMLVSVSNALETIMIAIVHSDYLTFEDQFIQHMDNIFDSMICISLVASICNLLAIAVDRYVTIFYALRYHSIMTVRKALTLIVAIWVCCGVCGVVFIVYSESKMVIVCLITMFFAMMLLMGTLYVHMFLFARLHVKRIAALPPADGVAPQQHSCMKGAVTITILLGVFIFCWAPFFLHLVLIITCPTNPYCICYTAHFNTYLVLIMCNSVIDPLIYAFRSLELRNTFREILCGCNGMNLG
The experiment is described as above.

Experiment [6] deals with T4, hMC5-R (human, UniProt P33032 1-325).
T4 construct: whole, on cells; Assayed as membranes prepared from transfected HEK 293 cells; also called MC5 receptor; melanocortin-5 receptor
T4 sequence (P33032 whole entry): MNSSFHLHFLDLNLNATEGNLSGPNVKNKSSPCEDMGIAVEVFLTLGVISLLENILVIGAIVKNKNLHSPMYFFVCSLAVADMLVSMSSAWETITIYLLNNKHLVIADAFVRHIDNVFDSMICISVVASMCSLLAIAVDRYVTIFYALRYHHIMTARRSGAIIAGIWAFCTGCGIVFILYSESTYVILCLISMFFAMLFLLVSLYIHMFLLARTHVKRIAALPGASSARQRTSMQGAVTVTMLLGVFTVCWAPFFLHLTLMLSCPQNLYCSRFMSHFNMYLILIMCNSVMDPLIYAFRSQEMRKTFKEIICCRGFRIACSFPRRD
Described as above.

Experiment [7] has as its target T4, hMC5-R. Description: competition with 125I-NDP-MSH, HEK 293 hMC5-R membranes, 1 µM peptide.
Experiment [8] addresses T3, hMC3-R. Description: competition with 125I-NDP-MSH, HEK 293 hMC3-R membranes, 1 µM peptide.

T1 sequence (P32245 whole entry): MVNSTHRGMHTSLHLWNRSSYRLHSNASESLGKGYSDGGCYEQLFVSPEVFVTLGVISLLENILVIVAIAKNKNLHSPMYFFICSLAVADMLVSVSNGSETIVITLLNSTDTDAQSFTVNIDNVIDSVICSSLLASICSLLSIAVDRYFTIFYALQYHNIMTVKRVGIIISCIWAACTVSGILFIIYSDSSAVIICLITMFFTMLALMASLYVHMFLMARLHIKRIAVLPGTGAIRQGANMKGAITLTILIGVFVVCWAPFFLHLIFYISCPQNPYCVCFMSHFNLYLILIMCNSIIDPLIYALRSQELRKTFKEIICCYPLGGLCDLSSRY
T2 sequence (Q01727 whole entry): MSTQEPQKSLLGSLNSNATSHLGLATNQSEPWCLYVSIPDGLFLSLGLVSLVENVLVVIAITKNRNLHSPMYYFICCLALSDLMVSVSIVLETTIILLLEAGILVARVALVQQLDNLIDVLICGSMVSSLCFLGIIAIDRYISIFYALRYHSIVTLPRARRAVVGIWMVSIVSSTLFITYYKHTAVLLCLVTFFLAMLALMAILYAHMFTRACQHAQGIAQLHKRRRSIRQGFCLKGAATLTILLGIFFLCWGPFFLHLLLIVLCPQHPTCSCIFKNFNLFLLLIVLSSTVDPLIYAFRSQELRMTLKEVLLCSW

B1: Ac-Nle-cyclo(-Asp-His-D-Phe-Lys-Trp-Lys)-OH (peptide)
peptide: XDHFKWK
modifications: N-terminal acetyl; Nle at 1 (X); D-Phe at 4; cyclo (lactam) between side chains of Asp 2 and Lys 7; C-terminal free acid (-OH)
notes: Synthetic cyclic heptapeptide; X = norleucine; also called Ac-Nle-cyclo( -Asp-His-D-Phe-Lys-Trp-Lsy)-OH
On to B1, for which the “Percent Inhibition At 1 µM concentration” value came out at 46% with hMC4-R [1], 86% in experiment [2], 17% with hMC5-R [7] and 8% with hMC3-R [8]. In addition, the inhibition constant Ki – broadly, a measure of affinity in units of concentration, obtained from inhibition or displacement – with hMC4-R [3] worked out at 742 µM; in experiment [4], 0.0099 µM; with hMC3-R [5], 10.8 µM; with hMC5-R [6], 2.53 µM.
